In publication PMC7004160:

Key:
[1] = target: superfolder GFP [GFP: P42212]; test: MST; sfGFP as the fluorescent antigen, photobody added in a dilution series; before and after photodeprotection (365 nm)
[2] = target: superfolder GFP [GFP: P42212]; test: not stated; photobody 10, caged or photodeprotected, with purified sfGFP

Kd [1] [nM]	Kd [2] [nM]	Substance
460		anti-GFP NPY-photobody (construct 5), GFP-enhancer nanobody with Y37NPY, caged (VHH)
> 10000		anti-GFP ONBY-photobody (construct 4), GFP-enhancer nanobody with Y37ONBY, caged (VHH)
	2280	anti-GFP minimizer Y113ONBY-photobody (construct 10), caged (VHH)
